Assays:
[1] = biological target: 59 kDa bovine lung CaM-PDE (expression product of p59KCAMPDE-2 cDNA) (bovine) (UniProt P14100); test: cell-based or functional assay
[2] = biological target: 63 kDa bovine brain CaM-PDE (expression product of p12.3a cDNA) (bovine) (UniProt Q01061); test: cell-based or functional assay
Sequence of 63 kDa bovine brain CaM-PDE (expression product of p12.3a cDNA) (bovine) (Q01061 whole entry): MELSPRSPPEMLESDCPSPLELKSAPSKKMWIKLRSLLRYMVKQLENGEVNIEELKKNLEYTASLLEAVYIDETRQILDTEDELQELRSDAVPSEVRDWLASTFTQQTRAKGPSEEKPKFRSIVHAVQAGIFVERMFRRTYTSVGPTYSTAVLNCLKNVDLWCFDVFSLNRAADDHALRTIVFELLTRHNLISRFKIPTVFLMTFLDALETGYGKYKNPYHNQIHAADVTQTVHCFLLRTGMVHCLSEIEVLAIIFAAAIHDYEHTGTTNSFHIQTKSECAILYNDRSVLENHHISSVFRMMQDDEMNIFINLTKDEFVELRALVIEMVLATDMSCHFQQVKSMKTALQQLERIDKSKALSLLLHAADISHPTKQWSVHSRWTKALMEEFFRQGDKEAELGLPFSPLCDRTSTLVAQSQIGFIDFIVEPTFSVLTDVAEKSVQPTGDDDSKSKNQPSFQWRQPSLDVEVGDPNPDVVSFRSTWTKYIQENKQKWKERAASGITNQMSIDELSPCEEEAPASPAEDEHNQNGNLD

Sequence of 59 kDa bovine lung CaM-PDE (expression product of p59KCAMPDE-2 cDNA) (bovine) (P14100 other isoform, or with tags, fused parts or gaps limits assumed): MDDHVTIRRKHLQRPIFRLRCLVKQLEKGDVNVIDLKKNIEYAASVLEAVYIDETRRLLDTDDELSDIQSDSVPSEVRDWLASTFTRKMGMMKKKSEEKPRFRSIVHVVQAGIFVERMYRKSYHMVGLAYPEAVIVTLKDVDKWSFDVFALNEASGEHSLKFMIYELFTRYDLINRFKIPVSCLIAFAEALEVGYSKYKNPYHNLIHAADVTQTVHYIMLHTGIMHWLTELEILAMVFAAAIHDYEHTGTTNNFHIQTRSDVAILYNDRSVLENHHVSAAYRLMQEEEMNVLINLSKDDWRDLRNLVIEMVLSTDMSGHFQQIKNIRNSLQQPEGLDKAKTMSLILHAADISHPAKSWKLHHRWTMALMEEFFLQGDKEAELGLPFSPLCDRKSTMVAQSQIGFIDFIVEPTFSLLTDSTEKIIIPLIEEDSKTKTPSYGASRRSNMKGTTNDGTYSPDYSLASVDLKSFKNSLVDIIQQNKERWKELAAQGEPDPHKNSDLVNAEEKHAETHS

cAMP hydrolytic activity (extracts of transfected COS-7 cells, 2 uM cAMP) [1]: 4 to 5 fold
CaM-stimulated cAMP phosphodiesterase activity (homogenates of transfected COS-7 cells) [2]: 15 fold
CaM-stimulated cGMP phosphodiesterase activity (homogenates of transfected COS-7 cells) [2]: 12 fold
Substance: calmodulin

Reference: US7122363
